This note sets out measurements from patent US20030027165A1 (published 2003).

For assay [1], the target named is T1, pol κ76, 76-kDa alternatively spliced isoform of DNA polymerase κ (human, UniProt Q9UBT6 1-870).
T1 construct: 672-residue open reading frame (GenBank AF315602), cloned by RT-PCR from human foreskin RNA with ON-DIN5'm and ON-DIN-THc; It was inserted BamHI/SalI into FLAG-modified pGBT9 and pGAD424; also called 76-kDa pol κ isoform; not shown: N-terminal yeast two-hybrid fusion part from the FLAG-modified pGBT9 or pGAD424 vector (Clontech) plus FLAG peptide; No
T1 sequence: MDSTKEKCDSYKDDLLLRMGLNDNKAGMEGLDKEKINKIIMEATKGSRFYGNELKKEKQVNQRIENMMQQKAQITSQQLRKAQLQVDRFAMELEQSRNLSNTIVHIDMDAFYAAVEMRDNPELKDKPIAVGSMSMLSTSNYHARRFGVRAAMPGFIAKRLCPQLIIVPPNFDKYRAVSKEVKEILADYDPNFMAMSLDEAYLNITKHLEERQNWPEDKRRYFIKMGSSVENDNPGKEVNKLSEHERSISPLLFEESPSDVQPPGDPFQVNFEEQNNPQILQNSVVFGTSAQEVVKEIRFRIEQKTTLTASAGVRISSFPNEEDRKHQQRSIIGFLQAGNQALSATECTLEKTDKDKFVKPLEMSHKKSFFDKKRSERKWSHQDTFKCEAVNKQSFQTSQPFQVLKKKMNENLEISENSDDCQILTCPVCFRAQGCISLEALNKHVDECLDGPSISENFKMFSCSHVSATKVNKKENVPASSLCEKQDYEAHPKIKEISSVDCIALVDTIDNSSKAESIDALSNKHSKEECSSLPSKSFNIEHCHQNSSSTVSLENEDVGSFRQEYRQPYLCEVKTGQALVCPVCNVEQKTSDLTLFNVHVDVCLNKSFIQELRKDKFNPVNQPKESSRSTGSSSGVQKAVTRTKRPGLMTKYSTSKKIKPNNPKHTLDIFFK
Put plainly: yeast two-hybrid.

Assay [2] concerns the target T2, pol κ, DNA polymerase κ, the primary protein product of POLK (human, UniProt Q9UBT6 1-870).
T2 construct: not shown: N-terminal yeast two-hybrid fusion part from the FLAG-modified pGBT9 or pGAD424 vector (Clontech) plus FLAG peptide; No
T2 sequence (looked up): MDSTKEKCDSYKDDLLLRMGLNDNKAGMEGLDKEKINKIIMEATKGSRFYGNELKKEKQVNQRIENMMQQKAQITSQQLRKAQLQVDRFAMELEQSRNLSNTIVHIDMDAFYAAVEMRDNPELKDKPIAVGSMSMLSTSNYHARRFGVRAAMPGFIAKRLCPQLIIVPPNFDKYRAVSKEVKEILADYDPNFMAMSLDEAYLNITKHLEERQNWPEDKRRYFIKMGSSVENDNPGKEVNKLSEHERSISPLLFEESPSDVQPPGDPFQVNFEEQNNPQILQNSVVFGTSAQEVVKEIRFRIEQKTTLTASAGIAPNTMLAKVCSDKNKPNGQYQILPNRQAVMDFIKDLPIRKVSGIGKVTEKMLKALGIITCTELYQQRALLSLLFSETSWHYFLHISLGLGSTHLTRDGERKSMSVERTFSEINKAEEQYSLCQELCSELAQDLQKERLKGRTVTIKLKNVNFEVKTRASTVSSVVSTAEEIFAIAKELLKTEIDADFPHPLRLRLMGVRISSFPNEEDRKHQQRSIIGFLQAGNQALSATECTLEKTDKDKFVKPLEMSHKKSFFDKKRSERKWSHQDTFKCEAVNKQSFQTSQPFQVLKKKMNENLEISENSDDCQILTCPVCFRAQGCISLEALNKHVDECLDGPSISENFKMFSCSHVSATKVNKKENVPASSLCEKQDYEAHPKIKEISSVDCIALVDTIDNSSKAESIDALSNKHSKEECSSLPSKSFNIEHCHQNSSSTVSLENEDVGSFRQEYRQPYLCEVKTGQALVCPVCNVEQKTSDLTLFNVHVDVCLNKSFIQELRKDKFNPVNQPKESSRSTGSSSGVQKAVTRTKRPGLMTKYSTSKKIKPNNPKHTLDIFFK
Put plainly: yeast two-hybrid.

B1: Goodpasture antigen binding protein (GPBP) (enzyme, human, UniProt Q9Y5P4 1-624, looked up)
chain: MSDNQSWNSSGSEEDPETESGPPVERCGVLSKWTNYIHGWQDRWVVLKNNALSYYKSEDETEYGCRGSICLSKAVITPHDFDECRFDISVNDSVWYLRAQDPDHRQQWIDAIEQHKTESGYGSESSLRRHGSMVSLVSGASGYSATSTSSFKKGHSLREKLAEMETFRDILCRQVDTLQKYFDACADAVSKDELQRDKVVEDDEDDFPTTRSDGDFLHSTNGNKEKLFPHVTPKGINGIDFKGEAITFKATTAGILATLSHCIELMVKREDSWQKRLDKETEKKRRTEEAYKNAMTELKKKSHFGGPDYEEGPNSLINEEEFFDAVEAALDRQDKIEEQSQSEKVRLHWPTSLPSGDAFSSVGTHRFVQKPYSRSSSMSSIDLVSASDDVHRFSSQVEEMVQNHMTYSLQDVGGDANWQLVVEEGEMKVYRREVEENGIVLDPLKATHAVKGVTGHEVCNYFWNVDVRNDWETTIENFHVVETLADNAIIIYQTHKRVWPASQRDVLYLSVIRKIPALTENDPETWIVCNFSVDHDSAPLNNRCVRAKINVAMICQTLVSPPEGNQEISRDNILCKITYVANVNPGGWAPASVLRAVAKREYPKFLKRFTSYVQEKTAGKPILF
B1: the binding result in assay [1] and in assay [2] was “no binding” each time.

B2: GPBPΔ26, alternatively spliced GPBP variant deleted for 26 amino acid residues (enzyme)
chain: MSDNQSWNSSGSEEDPETESGPPVERCGVLSKWTNYIHGWQDRWVVLKNNALSYYKSEDETEYGCRGSICLSKAVITPHDFDECRFDISVNDSVWYLRAQDPDHRQQWIDAIEQHKTESGYGSESSLRRHGSMVSLVSGASGYSATSTSSFKKGHSLREKLAEMETFRDILCRQVDTLQKYFDACADAVSKDELQRDKVVEDDEDDFPTTRSDGDFLHSTNGNKEKLFPHVTPKGINGIDFKGEAITFKATTAGILATLSHCIELMVKREDSWQKRLDKETEKKRRTEEAYKNAMTELKKKSHFGGPDYEEGPNSLINEEEFFDAVEAALDRQDKIEEQSQSEKVRLHWPTSLPSGDAFSSVGTHRFVQKVEEMVQNHMTYSLQDVGGDANWQLVVEEGEMKVYRREVEENGIVLDPLKATHAVKGVTGHEVCNYFWNVDVRNDWETTIENFHVVETLADNAIIIYQTHKRVWPASQRDVLYLSVIRKIPALTENDPETWIVCNFSVDHDSAPLNNRCVRAKINVAMICQTLVSPPEGNQEISRDNILCKITYVANVNPGGWAPASVLRAVAKREYPKFLKRFTSYVQEKTAGKPILF
notes: The two-hybrid construct is not described; also called GPBP?26; GPBPD26
Turning to B2, the binding result in assay [1] and in assay [2] was “no binding” throughout.
